In IntAct's records for PubMed 31515488:

B1: Complex I assembly factor TIMMDC1, mitochondrial (Homo sapiens), Q9NPL8 (parent)
chain: MEVPPPAPRSFLCRALCLFPRVFAAEAVTADSEVLEERQKRLPYVPEPYYPESGWDRLRELFGKDEQQRISKDLANICKTAATAGIIGWVYGGIPAFIHAKQQYIEQSQAEIYHNRFDAVQSAHRAATRGFIRYGWRWGWRTAVFVTIFNTVNTSLNVYRNKDALSHFVIAGAVTGSLFRINVGLRGLVAGGIIGALLGTPVGGLLMAFQKYSGETVQERKQKDRKALHELKLEEWKGRLQVTEHLPEKIESSLQEDEPENDAKKIEALLNLPRNPSVIDKQDKD
partner: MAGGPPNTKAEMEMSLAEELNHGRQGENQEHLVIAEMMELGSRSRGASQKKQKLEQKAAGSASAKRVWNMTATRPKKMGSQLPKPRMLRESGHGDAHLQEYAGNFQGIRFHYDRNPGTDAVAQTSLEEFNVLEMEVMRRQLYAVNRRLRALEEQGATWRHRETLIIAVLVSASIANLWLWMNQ
B2: Bcl-2-interacting killer (Homo sapiens), Q13323 (parent)
chain: MSEVRPLSRDILMETLLYEQLLEPPTMEVLGMTDSEEDLDPMEDFDSLECMEGSDALALRLACIGDEMDVSLRAPRLAQLSEVAMHSLGLAFIYDQTEDIRDVLRSFMDGFTTLKENIMRFWRSPNPGSWVSCEQVLLALLLLLALLLPLLSGGLHLLLK
B3: Protein FAM168A (Homo sapiens), Q92567 (parent)
chain: MNPVYSPVQPGAPYGNPKNMAYTGYPTAYPAAAPAYNPSLYPTNSPSYAPEFQFLHSAYATLLMKQAWPQNSSSCGTEGTFHLPVDTGTENRTYQASSAAFRYTAGTPYKVPPTQSNTAPPPYSPSPNPYQTAMYPIRSAYPQQNLYAQGAYYTQPVYAAQPHVIHHTTVVQPNSIPSAIYPAPVAAPRTNGVAMGMVAGTTMAMSAGTLLTTPQHTAIGAHPVSMPTYRAQGTPAYSYVPPHW
partner: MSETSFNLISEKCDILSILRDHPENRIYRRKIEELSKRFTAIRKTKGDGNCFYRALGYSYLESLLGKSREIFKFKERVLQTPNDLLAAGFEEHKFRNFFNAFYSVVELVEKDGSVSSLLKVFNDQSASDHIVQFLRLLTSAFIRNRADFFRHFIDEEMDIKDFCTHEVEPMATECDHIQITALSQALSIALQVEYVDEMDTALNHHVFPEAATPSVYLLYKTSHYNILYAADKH
B4: Tuftelin-interacting protein 11 (Homo sapiens), Q9UBB9 (parent)
chain: MSLSHLYRDGEGRIDDDDDERENFEITDWDLQNEFNPNRQRHWQTKEEATYGVWAERDSDDERPSFGGKRARDYSAPVNFISAGLKKGAAEEAELEDSDDEEKPVKQDDFPKDFGPRKLKTGGNFKPSQKGFAGGTKSFMDFGSWERHTKGIGQKLLQKMGYVPGRGLGKNAQGIINPIEAKQRKGKGAVGAYGSERTTQSMQDFPVVDSEEEAEEEFQKELSQWRKDPSGSKKKPKYSYKTVEELKAKGRISKKLTAPQKELSQVKVIDMTGREQKVYYSYSQISHKHNVPDDGLPLQSQQLPQSGKEAKAPGFALPELEHNLQLLIDLTEQEIIQNDRQLQYERDMVVNLFHELEKMTEVLDHEERVISNLSKVLEMVEECERRMQPDCSNPLTLDECARIFETLQDKYYEEYRMSDRVDLAVAIVYPLMKEYFKEWDPLKDCTYGTEIISKWKSLLENDQLLSHGGQDLSADAFHRLIWEVWMPFVRNIVTQWQPRNCDPMVDFLDSWVHIIPVWILDNILDQLIFPKLQKEVENWNPLTDTVPIHSWIHPWLPLMQARLEPLYSPIRSKLSSALQKWHPSDSSAKLILQPWKDVFTPGSWEAFMVKNIVPKLGMCLGELVINPHQQHMDAFYWVIDWEGMISVSSLVGLLEKHFFPKWLQVLCSWLSNSPNYEEITKWYLGWKSMFSDQVLAHPSVKDKFNEALDIMNRAVSSNVGAYMQPGARENIAYLTHTERRKDFQYEAMQERREAENMAQRGIGVAASSVPMNFKDLIETKAEEHNIVFMPVIGKRHEGKQLYTFGRIVIYIDRGVVFVQGEKTWVPTSLQSLIDMAK
partner: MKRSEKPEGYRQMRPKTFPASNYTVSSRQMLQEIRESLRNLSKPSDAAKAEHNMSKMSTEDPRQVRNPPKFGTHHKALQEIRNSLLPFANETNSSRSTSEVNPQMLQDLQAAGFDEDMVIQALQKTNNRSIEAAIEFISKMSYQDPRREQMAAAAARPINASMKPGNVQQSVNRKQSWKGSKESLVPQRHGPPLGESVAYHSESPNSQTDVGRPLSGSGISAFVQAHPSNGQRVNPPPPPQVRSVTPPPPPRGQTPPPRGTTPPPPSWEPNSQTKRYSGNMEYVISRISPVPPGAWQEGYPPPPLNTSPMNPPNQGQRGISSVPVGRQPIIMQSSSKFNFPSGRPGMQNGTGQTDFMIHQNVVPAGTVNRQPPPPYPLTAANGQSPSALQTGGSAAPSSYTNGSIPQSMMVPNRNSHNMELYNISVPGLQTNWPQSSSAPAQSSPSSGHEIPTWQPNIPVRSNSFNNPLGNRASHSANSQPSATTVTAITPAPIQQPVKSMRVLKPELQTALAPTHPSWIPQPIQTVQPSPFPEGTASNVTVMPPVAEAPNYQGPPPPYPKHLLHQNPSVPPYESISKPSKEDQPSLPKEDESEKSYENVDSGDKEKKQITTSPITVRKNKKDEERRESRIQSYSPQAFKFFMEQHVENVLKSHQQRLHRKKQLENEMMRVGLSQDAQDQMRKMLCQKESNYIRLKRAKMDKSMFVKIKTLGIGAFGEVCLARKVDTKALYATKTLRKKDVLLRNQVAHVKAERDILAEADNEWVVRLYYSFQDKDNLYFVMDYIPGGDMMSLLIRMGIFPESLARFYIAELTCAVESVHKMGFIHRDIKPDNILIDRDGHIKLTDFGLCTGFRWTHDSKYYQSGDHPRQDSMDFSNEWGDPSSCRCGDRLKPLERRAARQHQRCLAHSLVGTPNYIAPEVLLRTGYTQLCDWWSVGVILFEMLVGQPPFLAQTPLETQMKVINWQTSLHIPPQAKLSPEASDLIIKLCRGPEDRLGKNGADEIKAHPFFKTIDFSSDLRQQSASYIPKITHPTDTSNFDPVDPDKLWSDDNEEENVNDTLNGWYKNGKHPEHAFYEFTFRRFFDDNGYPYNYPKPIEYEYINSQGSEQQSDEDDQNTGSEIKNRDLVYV
B5: Transcription factor 19 (Homo sapiens), Q9Y242 (parent)
chain: MLPCFQLLRIGGGRGGDLYTFHPPAGAGCTYRLGHRADLCDVALRPQQEPGLISGIHAELHAEPRGDDWRVSLEDHSSQGTLVNNVRLPRGHRLELSDGDLLTFGPEGPPGTSPSEFYFMFQQVRVKPQDFAAITIPRSRGEARVGAGFRPMLPSQGAPQRPLSTFSPAPKATLILNSIGSLSKLRPQPLTFSPSWGGPKSLPVPAPPGEMGTTPSAPPQRNRRKSVHRVLAELDDESEPPENPPPVLMEPRKKLRVDKAPLTPTGNRRGRPRKYPVSAPMAPPAVGGGEPCAAPCCCLPQEETVAWVQCDGCDVWFHVACVGCSIQAAREADFRCPGCRAGIQT
partner: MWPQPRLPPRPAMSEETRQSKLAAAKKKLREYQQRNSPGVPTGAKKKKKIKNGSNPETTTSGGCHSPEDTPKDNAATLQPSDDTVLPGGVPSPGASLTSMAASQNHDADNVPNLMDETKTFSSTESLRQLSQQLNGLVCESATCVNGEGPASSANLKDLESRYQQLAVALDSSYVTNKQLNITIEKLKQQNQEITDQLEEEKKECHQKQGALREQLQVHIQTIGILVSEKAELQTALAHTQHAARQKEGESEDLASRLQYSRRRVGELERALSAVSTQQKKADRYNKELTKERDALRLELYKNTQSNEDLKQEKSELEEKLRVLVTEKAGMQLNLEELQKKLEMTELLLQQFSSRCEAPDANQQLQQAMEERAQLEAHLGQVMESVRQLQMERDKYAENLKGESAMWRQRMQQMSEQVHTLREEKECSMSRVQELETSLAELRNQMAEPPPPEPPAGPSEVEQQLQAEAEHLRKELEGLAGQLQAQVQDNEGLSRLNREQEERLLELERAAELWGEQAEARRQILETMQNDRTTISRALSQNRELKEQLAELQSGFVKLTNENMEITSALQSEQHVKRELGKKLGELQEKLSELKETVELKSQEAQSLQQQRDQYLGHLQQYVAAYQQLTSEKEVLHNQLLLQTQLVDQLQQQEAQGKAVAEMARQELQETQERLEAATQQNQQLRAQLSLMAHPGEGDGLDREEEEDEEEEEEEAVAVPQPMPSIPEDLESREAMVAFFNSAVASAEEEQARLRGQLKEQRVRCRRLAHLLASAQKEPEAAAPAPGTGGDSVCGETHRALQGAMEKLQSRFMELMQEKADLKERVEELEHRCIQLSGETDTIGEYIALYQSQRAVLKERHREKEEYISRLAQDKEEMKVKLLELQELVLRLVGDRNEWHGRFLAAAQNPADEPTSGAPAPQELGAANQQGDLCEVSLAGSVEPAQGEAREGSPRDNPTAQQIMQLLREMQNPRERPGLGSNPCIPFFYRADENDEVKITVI

Variants of: B1
Conditions: with fate1_human FATE1, Q969F0

effect of a mutation on the interaction	Variant
with no effect	N76D

Variants of: B2
Conditions: with BCL2L1, Q07817
Chain of BCL2L1, Q07817 (Q07817 whole entry): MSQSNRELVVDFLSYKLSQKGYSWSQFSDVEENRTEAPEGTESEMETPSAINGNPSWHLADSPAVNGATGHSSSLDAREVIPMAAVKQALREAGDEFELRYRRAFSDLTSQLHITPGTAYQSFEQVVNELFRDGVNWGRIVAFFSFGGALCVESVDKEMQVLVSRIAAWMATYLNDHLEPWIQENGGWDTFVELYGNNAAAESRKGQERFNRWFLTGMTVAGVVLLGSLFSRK

effect of a mutation on the interaction	Variant
with no effect	D69E

Variants of: B3
Conditions: with otub2_human OTUB2, Q96DC9

effect of a mutation on the interaction	Variant
disrupting interaction strength	P122R

Variants of: B4
Conditions: with lats1_human LATS1, O95835

effect of a mutation on the interaction	Variant
with no effect	S688L
with no effect	R8Q

Variants of: B5
Conditions: with goga2_human GOLGA2, Q08379

effect of a mutation on the interaction	Variant
with no effect	A279V
